# According to patent US20250074946A1 (HEBEI FITNESS BIOTECHNOLOGY, published 2025):
# B1: FNS007 (APL2) (peptide)
# peptide: FKGEQAGAGE
# B2: APL11 (peptide)
# peptide: IWYINCFACETHAML
# B3: APL8 (peptide)
# peptide: IWYIQCFGCETHAML
# B4: APL20 (peptide)
# peptide: SIDLKDKKYKNIGAKLVQLVANNTNEEA
# B5: APL13 (peptide)
# peptide: RSFALASSETGVG
# B6: APL17 (peptide)
# peptide: RSFTLASSATGVG
# B7: APL18 (peptide)
# peptide: RSFTLASSEAGVG
# B8: APL16 (peptide)
# peptide: RSFTLAASETGVG
# B9: APL21 (peptide)
# peptide: MGPKGRTVIIEQSLGSPKVTK
# notes: also called ALP21
# B10: APL10 (peptide)
# peptide: IWYITCFGCETHAML
# B11: APL14 (peptide)
# peptide: RSFTAASSETGVG
# B12: APL12 (peptide)
# peptide: IWYINCFVCETHAML
# B13: APL9 (peptide)
# peptide: IWYISCFGCETHAML
# B14: APL55 (peptide)
# peptide: IWYINCFGCRTAAML
# B15: APL41 (peptide)
# peptide: FKGRQAGAGE
# B16: APL56 (peptide)
# peptide: IWYINCFGCHTAAML
# B17: APL60 (peptide)
# peptide: RSGTLASAETGVG
# Target: HLA-DR1 (human)
# Assay: fluorescence polarization competition; displaces 25 nM fluorescently-labeled polypeptide from 500 nM HLA-DR1
row,Binder,IC50
1,B1,3.37 µM
2,B2,3.98 µM
3,B3,5.47 µM
4,B4,3.88 µM
5,B5,5.02 µM
6,B6,3.53 µM
7,B7,4.88 µM
8,B8,5.55 µM
9,B9,4.15 µM
10,B10,5.87 µM
11,B11,6.54 µM
12,B12,5.2 µM
13,B13,5.09 µM

# Target: HLA-DR1 (human)
# Assay: as above
# Remark: another data set of the same source
row,Binder,IC50
1,B14,98.8 µM
2,B15,88.4 µM
3,B16,69.2 µM
4,B17,61.7 µM
